Measurements published in IntAct's records for PubMed 21718540.

B1: TGF-beta receptor type-1 (Mus musculus), Q64729 (parent)
chain: MEAAAAAPRRPQLLIVLVAAATLLPGAKALQCFCHLCTKDNFTCETDGLCFVSVTETTDKVIHNSMCIAEIDLIPRDRPFVCAPSSKTGAVTTTYCCNQDHCNKIELPTTGPFSEKQSAGLGPVELAAVIAGPVCFVCIALMLMVYICHNRTVIHHRVPNEEDPSLDRPFISEGTTLKDLIYDMTTSGSGSGLPLLVQRTIARTIVLQESIGKGRFGEVWRGKWRGEEVAVKIFSSREERSWFREAEIYQTVMLRHENILGFIAADNKDNGTWTQLWLVSDYHEHGSLFDYLNRYTVTVEGMIKLALSTASGLAHLHMEIVGTQGKPAIAHRDLKSKNILVKKNGTCCIADLGLAVRHDSATDTIDIAPNHRVGTKRYMAPEVLDDSINMKHFESFKRADIYAMGLVFWEIARRCSIGGIHEDYQLPYYDLVPSDPSVEEMRKVVCEQKLRPNIPNRWQSCEALRVMAKIMRECWYANGAARLTALRIKKTLSQLSQQEGIKM
partner: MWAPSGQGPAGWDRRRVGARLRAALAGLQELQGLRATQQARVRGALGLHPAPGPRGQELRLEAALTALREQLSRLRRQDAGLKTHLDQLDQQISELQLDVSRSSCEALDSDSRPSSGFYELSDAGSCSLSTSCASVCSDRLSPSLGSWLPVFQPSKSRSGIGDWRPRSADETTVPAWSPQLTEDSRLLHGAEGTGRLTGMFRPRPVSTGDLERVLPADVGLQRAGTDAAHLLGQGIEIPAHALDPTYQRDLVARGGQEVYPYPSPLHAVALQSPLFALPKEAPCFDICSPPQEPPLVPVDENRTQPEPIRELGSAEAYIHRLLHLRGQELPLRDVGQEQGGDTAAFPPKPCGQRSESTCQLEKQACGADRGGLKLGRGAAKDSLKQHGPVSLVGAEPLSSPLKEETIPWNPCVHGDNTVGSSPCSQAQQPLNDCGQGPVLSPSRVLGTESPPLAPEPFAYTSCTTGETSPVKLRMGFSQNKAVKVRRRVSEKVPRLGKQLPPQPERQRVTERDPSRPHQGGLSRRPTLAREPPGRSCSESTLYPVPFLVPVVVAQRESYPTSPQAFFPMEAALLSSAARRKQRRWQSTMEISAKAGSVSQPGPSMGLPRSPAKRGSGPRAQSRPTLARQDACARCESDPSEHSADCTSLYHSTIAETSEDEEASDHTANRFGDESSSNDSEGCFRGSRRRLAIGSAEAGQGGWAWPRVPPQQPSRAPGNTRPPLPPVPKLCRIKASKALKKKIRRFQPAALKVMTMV

Variants of: B1
Settings: with dact2_mouse Dact2, Q7TN08

| effect of a mutation on the interaction | Variant |
| --- | --- |
| decreasing interaction | MEAAAAAPRRPQLLIVLVAAATLLPGAKALQCFCHLCTKDNFTCETDGLCFVSVTETTDKVIHNSMCIAEIDLIPRDRPFVCAPSSKTGAVTTTYCCNQDHCNKIELPTTGPFSEKQSAGLGPVELAAVIAGPVCFVCIALMLMVYICHNRTVIHHRVPNEEDPSLDRPFISEGTTLKDLIYDMTTSGSGSGLPLLVQRTIARDIVLQESIGKGRFGEVWRGKWRGEEVAVKIFSSREERSWFREAEIYQTVMLRHENILGFIAADNKDNGTWTQLWLVSDYHEHGSLFDYLNRYTVTVEGMIKLALSTASGLAHLHMEIVGTQGKPAIAHRDLKSKNILVKKNGTCCIADLGLAVRHDSATDTIDIAPNHRVGTKRYMAPEVLDDSINMKHFESFKRADIYAMGLVFWEIARRCSIGGIHEDYQLPYYDLVPSDPSVEEMRKVVCEQKLRPNIPNRWQSCEALRVMAKIMRECWYANGAARLTALRIKKTLSQLSQQEGIKM [T204D] |
